These results are taken from patent US20220403048A1 (CANCER RESEARCH TECHNOLOGY, published 2022).

To fix the notation:
T1: biotinylated recombinant human trimeric ARG2 enzyme (Avi-huARG2-His10) (human, UniProt P78540 23-354, biotinylated)
T1 construct: also called avi-Arg2-His10; bio-ARG2
T1 chain: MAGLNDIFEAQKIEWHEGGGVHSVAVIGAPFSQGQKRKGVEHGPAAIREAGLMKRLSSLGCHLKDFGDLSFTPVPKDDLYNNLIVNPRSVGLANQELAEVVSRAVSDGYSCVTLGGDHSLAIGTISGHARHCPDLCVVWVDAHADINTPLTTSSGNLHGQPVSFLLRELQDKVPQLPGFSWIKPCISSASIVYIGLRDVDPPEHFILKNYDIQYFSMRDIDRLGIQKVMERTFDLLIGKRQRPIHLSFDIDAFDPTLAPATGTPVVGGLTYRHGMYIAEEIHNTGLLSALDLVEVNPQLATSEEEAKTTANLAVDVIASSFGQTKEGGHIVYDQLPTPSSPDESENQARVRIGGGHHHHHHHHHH

T2: recombinant human trimeric ARG2 enzyme (construct not given) (human, UniProt P78540 23-354)
T2 sequence (looked up): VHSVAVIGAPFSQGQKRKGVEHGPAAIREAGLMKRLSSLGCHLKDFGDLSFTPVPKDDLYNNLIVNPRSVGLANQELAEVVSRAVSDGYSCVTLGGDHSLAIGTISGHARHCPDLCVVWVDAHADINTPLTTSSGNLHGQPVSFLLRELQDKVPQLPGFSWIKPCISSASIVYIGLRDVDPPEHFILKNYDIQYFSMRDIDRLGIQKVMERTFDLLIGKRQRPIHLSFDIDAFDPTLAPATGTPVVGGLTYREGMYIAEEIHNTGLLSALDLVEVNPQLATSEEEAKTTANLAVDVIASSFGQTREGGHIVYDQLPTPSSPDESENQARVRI

B1: C0021141 Fab (Fab, V domains shown)
VH: EVQLLESGGGLVQPGGSLRLSCAASGFTFYPDPQGWVRQAPGKGLEWVSAYGYGIGSTYYADSVKGRFTISRDNSKNTLYLQMNSLRAEDTAVYYCARLRADLGLYMDLWGRGTLVTVSS
VL: QSVLTQPPSVSAAPGQEVTISCSGSSSNIDNHYVSWYQQLPGTAPKLLIYDNSERPSGIPDRFSGSKSGTSATLGITGLQTGDEADYYCGTWDSSLSALVFGGGTKLTVL
notes: Human Fab
B2: C0021101 Fab (Fab, V domains shown)
VH: EVQLLESGGGLVQPGGSLRLSCAASGFTFSSYAMSWVRQAPGKGPEWVSAISGFSPYYADSVKGRFTISRDNSKNTLYLQMNSLRAEDTAVYYCARLRADLGLYMDLWGRGTLVTVSS
VL: B1 VL with E17K, D30G, D51N, S53R, E54S, R55P, P56T
notes: Human Fab
B3: C0021118 Fab (Fab, V domains shown)
VH: EVQLLESGGGLVQPGGSLRLSCAASGFTFSSYAMSWVRQAPGKGLEWVSASLTNPGSTYYADSVKGRFTISRDNSKNTLYLQMNSLRAEDTAVYYCARLRADLGLYMDLWGRGTLVTVSS
VL: B1 VL with E17K, D30G, G90A, W92Y, S94T, S95N
notes: Human Fab
B4: C0021096 Fab (Fab, V domains shown)
VH: B2 VH with P45L, F54Y, P56G
VL: B1 VL with E17K, D30G, D51N, N52T, S53E, E54R, P56M
notes: Human Fab
B5: C0021097 Fab (Fab, V domains shown)
VH: B3 VH with S51I, L52S, T53Y, N54H
VL: B1 VL with E17K, D30G, D51N, N52T, S53F, E54A
notes: Human Fab
B6: C0021142 Fab (Fab, V domains shown)
VH: B3 VH with S51H, L52T, T53H, N54S
VL: B1 VL with E17K, D30G
notes: Human Fab
B7: C0021021 Fab (Fab, V domains shown)
VH: B3 VH with A50S, S51I, T53F, N54S
VL: B1 VL with E17K, D30G
notes: Human Fab
B8: C0021032 Fab (Fab, V domains shown)
VH: B3 VH with S51Y, L52G, T53Y, N54G, P55I
VL: B1 VL with E17K, D30G
notes: Human Fab
B9: C0021017 scFv (scFv, V domains shown)
VH: B1 VH with D32E, P33Y, Q34E, G35L, Y51I, G52S, Y53G, G54S, I55G
VL: B1 VL with E17K, D30G
notes: scFv
B10: C0021022 scFv (scFv, V domains shown)
VH: B2 VH
VL: B1 VL with E17K, D30G
notes: scFv
B11: C0021101 scFv (scFv, V domains shown)
VH: B2 VH
VL: B1 VL with E17K, D30G, D51N, S53R, E54S, R55P, P56T
notes: scFv
B12: C0021032 scFv (scFv, V domains shown)
VH: B3 VH with S51Y, L52G, T53Y, N54G, P55I
VL: B1 VL with E17K, D30G
notes: scFv
B13: C0021118 scFv (scFv, V domains shown)
VH: B3 VH
VL: B1 VL with E17K, D30G, G90A, W92Y, S94T, S95N
notes: scFv
B14: C0021065 scFv (scFv, V domains shown)
VH: B2 VH with K74R
VL: B1 VL with E17K, D30G, N52T, S53D, E54H, R55M, P56A
notes: scFv
B15: C0021135 scFv (scFv, V domains shown)
VH: EVQLLESGGGLVQPGGSLRLSCAASGFAFRYEYIQWVRQAPGKGLEWVSAISGSGGSTYYADSVKGRFTISRDNSKNTLYLQMNSLRAEDTAVYYCARLRADLGLYMDLWGRGTLVTVSS
VL: B1 VL with E17K, D30G, P45H
notes: scFv
B16: C0021021 scFv (scFv, V domains shown)
VH: B3 VH with A50S, S51I, T53F, N54S
VL: B1 VL with E17K, D30G
notes: scFv
B17: C0021129 scFv (scFv, V domains shown)
VH: B2 VH with Q13R, P45L, Y57F
VL: B1 VL with E17K, D30G, G75D, S94E, S95T, L96A, S97A, A98E
notes: scFv
B18: C0021098 scFv (scFv, V domains shown)
VH: B3 VH with A50S, L52T, T53Y, N54G, P55A
VL: B1 VL with E17K, D30G, D51N, N52S, S53D, E54A, R55P, P56M
notes: scFv
B19: C0021131 scFv (scFv, V domains shown)
VH: B15 VH with A28T, R30P, E32D, I34M, Q35G
VL: B1 VL with E17K, D30G, S94E, S95L, L96T, A98N
notes: scFv
B20: C0021092 scFv (scFv, V domains shown)
VH: B3 VH with S31R, S51H, L52T, T53H, N54S
VL: B1 VL with E17K, D30G, D51N, N52S, S53V, E54A
notes: scFv
B21: C0021139 scFv (scFv, V domains shown)
VH: B15 VH with A28T, R30Q, E32D, I34Q, Q35V
VL: B1 VL with E17K, D30G, P56T, S94E, S95L, L96T, A98N
notes: scFv
B22: C0021097 scFv (scFv, V domains shown)
VH: B3 VH with S51I, L52S, T53Y, N54H
VL: B1 VL with E17K, D30G, D51N, N52T, S53F, E54A
notes: scFv
B23: C0021061 scFv (scFv, V domains shown)
VH: B3 VH with S51K, L52P, N54D, P55A
VL: B1 VL with E17K, D30G, D51N, N52T, S53V, E54Y, R55P, P56K
notes: scFv
B24: C0021096 scFv (scFv, V domains shown)
VH: B2 VH with P45L, F54Y, P56G
VL: B1 VL with E17K, D30G, D51N, N52T, S53E, E54R, P56M
notes: scFv
B25: C0021089 scFv (scFv, V domains shown)
VH: B15 VH with A28T, R30P, I34W, Q35S, E89Q
VL: B1 VL with E17K, D30G, S94P, S95T, L96V, A98R
notes: scFv
B26: C0021124 scFv (scFv, V domains shown)
VH: B3 VH with S51I, L52S, T53Y, N54H, M83I
VL: B1 VL with P7L, E17K, D30G, S95D, L96R, S97V, A98N, V100E
notes: scFv

Where a chain is given by its changes, count along the chain named.

The first test addresses T1, biotinylated recombinant human trimeric …. Briefly: BLI (OctetRED), biotinylated ARG2 on streptavidin, Fab as analyte. How it is done:
An Octet Kinetics Buffer (PBS containing 0.01% BSA and 0.002% Tween20) is typically used as the diluent buffer for the analyte samples and as the flow buffer during the dissociation phase. The experimental data is recorded over time as shift in interference pattern (nm) over time, which is directly proportional to the optical thickness at the biosensor tip, which in turn is an approximate measure of the mass of analyte bound. The proprietary Octet Data Analysis software package can then be used to process data and fit binding models to the data sets. Returned association (kₐ, M⁻¹ s⁻¹) and dissociation (kd, s⁻¹) rate constants allow calculation of dissociation (KD, M) affinity constants.
Typically, an analyte titration range of 1.8 to 120 nM was used.
Take B1: the Kd came out at 3.33 nM, the koff is 0.00108 s⁻¹ and the kon was found to be 326000 M⁻¹ s⁻¹.
In the case of B2, the Kd turned out to be 3.41 nM, the koff was 0.00107 s⁻¹ and the association rate constant (kon) turned out to be 314000 M⁻¹ s⁻¹.
The like results for B3 were, in that order, 8.23 nM, 0.00114 s⁻¹ and 139000 M⁻¹ s⁻¹.
For the molecule B4, the Kd was 3.48 nM, the koff worked out at 0.00154 s⁻¹ and the kon came out at 441000 M⁻¹ s⁻¹.
As for B5, the Kd is 4.95 nM, the koff was 0.00146 s⁻¹ and the kon was determined as 295000 M⁻¹ s⁻¹.
The like results for B6 were, in that order, 2.77 nM, 0.0011 s⁻¹ and 399000 M⁻¹ s⁻¹.
Consider B7, for which the Kd was 4.24 nM, the koff stood at 0.002 s⁻¹ and the kon worked out at 473000 M⁻¹ s⁻¹.
The like results for B8 were, in that order, 5.33 nM, 0.00228 s⁻¹ and 427000 M⁻¹ s⁻¹.

The target is the same in the next test. In words: HTRF epitope competition, scFv titrated, competitor C0020187 IgG, on biotinylated human trimeric ARG2.
Consider B9, for which the IC50 was determined as 122 nM.
Same read-out and setting: in the case of B10 it was 65.9 nM; in that of B11, 40.8 nM.
On the same count and under the same terms, the value for B12 was 67 nM; that for B13 was 41.7 nM; that for B14 was 74.7 nM.
Turning to B15, the IC50 worked out at 52 nM.
B16: the IC50 is 58.7 nM.
The same measure, in the same setting: the value for B17 was 45 nM.
Still for that read-out and setting: the value for B18 was 48.3 nM; that for B19 was 45.7 nM; that for B20 was 130 nM.
Same read-out and setting: in the case of B21 it was 40.1 nM; in that of B22, 27.5 nM; in that of B23, 101 nM.
B24: the IC50 was found to be 35.2 nM.
The same measure, in the same setting: in the case of B25 it was 133 nM; in that of B26, 50.5 nM.

A further test deals with T2, recombinant human trimeric ARG2 enzyme …. In words: cell-based or functional assay.
For the molecule B9, the “Trimeric human ARG2 EIA IC50” value turned out to be 226 nM.
As to B10, the “Trimeric human ARG2 EIA IC50” value was found to be 106 nM.
On the same count and under the same terms, the value for B11 was 64.8 nM; that for B12 was 211 nM; that for B13 was 84.1 nM.
Still for that read-out and setting: the value for B14 was 143 nM; that for B15 was 220 nM.
Same read-out and setting: the value for B16 was 151 nM; that for B17 was 313 nM; that for B18 was 134 nM.
As to B19, the “Trimeric human ARG2 EIA IC50” value stood at 251 nM.
With B20, the “Trimeric human ARG2 EIA IC50” value was determined as 159 nM.
As to B21, the “Trimeric human ARG2 EIA IC50” value was determined as 188 nM.
As to B22, the “Trimeric human ARG2 EIA IC50” value amounted to 99.1 nM.
The same measure, in the same setting: the value for B23 was 110 nM.
Same read-out and setting: the value for B24 was 57.8 nM.
Same read-out and setting: in the case of B25 it was 71.5 nM; in that of B26, 375 nM.
